# Experimental data from IntAct's records for PubMed 23932588.
# B1: Tyrosine-protein phosphatase non-receptor type 5 (Mus musculus), P54830-1 (parent)
# chain: MCCSERLLGLPQPVEMEAPDEAEGLPSKQKEMPPPPPPSPPSEPAQKLPPQGAGSHSLTVRSSLCLFAASQFLLACGVLWLSGHGHSWLQNTTDLISSSLTVLNHLGPVAWLGSGTWGIPSLLLVSLTVSLVIVTTLVWHLLKAPPEPPAPLPPEDRRQSVSRQPSFTYSEWMEEKVEDDFLDLDAVPETPVFDCVMDIKPETDPASLTVKSMGLQERRGSNVSLTLDMCTPGCNEEGFGYLVSPREESAHEYLLSASRVLRAEELHEKALDPFLLQAEFFEIPMNFVDPKEYDIPGLVRKNRYKTILPNPHSRVRLTSPDPEDPLSSYINANYIRGYSGEEKVYIATQGPIVSTVADFWRMVWQERTPIIVMITNIEEMNEKCTEYWPEEQVVHDGVEITVQKVIHTEDYRLRLISLRRGTEERSLKHYWFTSWPDQKTPDRAPPLLHLVREVEEAAQQEGPHCSPIIVHCSAGIGRTGCFIATSICCQQLRREGVVDILKTTCQLRQDRGGMIQTCEQYQFVHHAMSLYEKQLSLQSSE
# Variants of: B1
# Details: with MAPK14, Q16539-1
# Sequence of MAPK14, Q16539-1 (Q16539 whole entry): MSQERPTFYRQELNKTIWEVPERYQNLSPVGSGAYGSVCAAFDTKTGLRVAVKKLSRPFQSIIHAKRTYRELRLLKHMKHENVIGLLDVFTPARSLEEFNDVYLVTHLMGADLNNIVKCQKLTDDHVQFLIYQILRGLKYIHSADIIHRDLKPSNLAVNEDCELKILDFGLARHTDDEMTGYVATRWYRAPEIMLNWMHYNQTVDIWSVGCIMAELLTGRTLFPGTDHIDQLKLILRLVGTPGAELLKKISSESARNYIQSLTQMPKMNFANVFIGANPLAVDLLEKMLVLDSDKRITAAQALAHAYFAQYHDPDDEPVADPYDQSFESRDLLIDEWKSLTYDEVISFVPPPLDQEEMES
row,Variant,effect of a mutation on the interaction
1,F281A;I307A,decreasing interaction strength
2,F274A;F281A,decreasing interaction strength
